B2: FapC (C-terminal histidine tag) labeled with Cyanine5 (natural protein)
chain: MGNEGGWHPPKPNPQSNNKGGATALVVDTQQNYNNKVSNFGTLNNASVSGSIKDASGNVGVNVAAGDNNQQANAAALASADASFVFGTATASTSVLQSGYGNTLNNYSNPNTASLSNSANNVSGNLGVNVAAGNFNQQKNDLAAAVSNGQYSTAGSAASQTSTGNTTVNSANYAYGGTYVSLKLNADGSYKGTSDQIGDVYLDTWEGQTHPGGSNTGHIDVDSQAQGAKDLNHDGGAFAFKEKGDVDLKGTVSGFIPAIVGFKTPVTNNASLSNSLQNVSGNVGVNIAAGGGNQQSNSLSIAAGCSSCPAGGESLGF
modifications: Cyanine5 attached by NHS ester to lysine residues (primary amines)
notes: FapC, Pseudomonas aeruginosa PAO1, UniProt Q9I2F0, without its signal peptide; same chain as m2; also called FapC labeled with Cyanine5; labeled FapC; source: E. coli BL-21, labeled on HisPur cobalt resin with Cyanine5 NHS ester, eluted and desalted
B4: FapB from the P. aeruginosa PAO1 strain with an N-terminal histidine tag (natural protein)
chain: DPLASRNRASIDDSGTYRGNFALNQAAGDAQQQSNVRVVAVGSAALVGSDQRQHLQLDASQPIAASASISGAALRGSGILGVNQGAGLGNQQINAFRLSLSNGPESLDDSVLAQSVALTKVSGSATPVPGGRSVSTDDRAFAGSSGVVQVNQSAGVGNQSMNTLSVRVME
notes: FapB, Pseudomonas aeruginosa PAO1, UniProt Q9I2E9; Used as fresh monomers, as fibrils and as sonicated fibril seeds; also called FapB-NterHis; histidine-tagged FapB; source: E. coli BL-21, purified (HisPur cobalt resin, lysis in 6 M guanidinium HCl)

Legend:
[1] = target: the molecule itself; assay: thioflavin T fibrillation kinetics + transmission electron microscopy; each protein alone, 25, 50 or 100 uM, universal buffer (Tris, Bis-Tris, sodium acetate) pH 4-9, 20 uM ThT, 37 °C, orbital shaking 300 rpm; fibrils seen by TEM after 80 h; self-assembly into amyloid fibrils
[2] = target: B4; assay: cell-based or functional assay
[3] = target: the molecule itself; assay: transmission electron microscopy of fibrils; fluorophore-labeled FapB and FapC, negative staining with 1% uranyl acetate
[4] = target: the molecule itself; assay: fibril formation, pelleting and formic acid dissolution with SDS-PAGE; 30 uM protein, 37 °C, 48 h, incubated individually; fibrils washed by centrifugation at 13,000g, sonicated and treated with formic acid
[5] = target: B2; assay: fluorescence microscopy of labeled purified proteins (colocalisation of monomers with preformed fibrils); Cyanine3-FapB and Cyanine5-FapC; monomers (0 h incubation) mixed with preformed fibrils (72 h incubation) of the other protein; imaged immediately after mixing and after 24 h; Leica DMI8, 20x; conditions: both partners purified

B1: FapC from the P. aeruginosa PAO1 strain with a C-terminal histidine tag (natural protein)
chain: MGNEGGWHPPKPNPQSNNKGGATALVVDTQQNYNNKVSNFGTLNNASVSGSIKDASGNVGVNVAAGDNNQQANAAALASADASFVFGTATASTSVLQSGYGNTLNNYSNPNTASLSNSANNVSGNLGVNVAAGNFNQQKNDLAAAVSNGQYSTAGSAASQTSTGNTTVNSANYAYGGTYVSLKLNADGSYKGTSDQIGDVYLDTWEGQTHPGGSNTGHIDVDSQAQGAKDLNHDGGAFAFKEKGDVDLKGTVSGFIPAIVGFKTPVTNNASLSNSLQNVSGNVGVNIAAGGGNQQSNSLSIAAGCSSCPAGGESLGF
notes: Used as fresh monomers, as fibrils and as sonicated fibril seeds; also called FapC-CterHis; histidine-tagged FapC; source: E. coli BL-21, purified (HisPur cobalt resin, lysis in 6 M guanidinium HCl)
binding result [1]: binds
residual FapB monomer on SDS-PAGE after 9 days of coincubation 1:1 with FapC at pH 5, without formic acid, relative to untreated monomers (9% for FapB alone) [2]: 52%

B2
binding result [3]: binds

B3: histidine-tagged CsgB of E. coli (natural protein, E. coli K12, UniProt P0ABK7 22-151, looked up)
chain: AGYDLANSEYNFAVNELSKSSFNQAAIIGQAGTNNSAQLRQGGSKLLAVVAQEGSSNRAKIDQTGDYNLAYIDQAGSANDASISQGAYGNTAMIIQKGSGNKANITQYGTQKTAIVVQRQSQMAIRVTQR
notes: CsgB (curli minor subunit), E. coli K12, UniProt P0ABK7; Expressed from a pET11a plasmid; the construct is not described further; source: E. coli BL21-DE3 slyD KO, purified (nickel-nitrilotriacetic acid beads, from 7.5 M guanidine hydrochloride)
binding result [4]: binds

B4
binding result [1]: binds

B5: FapB (N-terminal histidine tag) labeled with Cyanine3 (natural protein)
chain: DPLASRNRASIDDSGTYRGNFALNQAAGDAQQQSNVRVVAVGSAALVGSDQRQHLQLDASQPIAASASISGAALRGSGILGVNQGAGLGNQQINAFRLSLSNGPESLDDSVLAQSVALTKVSGSATPVPGGRSVSTDDRAFAGSSGVVQVNQSAGVGNQSMNTLSVRVME
modifications: Cyanine3 attached by NHS ester to lysine residues (primary amines)
notes: FapB, Pseudomonas aeruginosa PAO1, UniProt Q9I2E9, 170 residues without the signal peptide; same chain as m1; also called FapB labeled with Cyanine3; labeled FapB; source: E. coli BL-21, labeled on HisPur cobalt resin with Cyanine3 NHS ester, eluted and desalted
binding result [5]: binds
binding result [3]: binds

B6: FapC from the P. aeruginosa PAO1 strain with an N-terminal histidine tag (natural protein)
chain: GNEGGWHPPKPNPQSNNKGGATALVVDTQQNYNNKVSNFGTLNNASVSGSIKDASGNVGVNVAAGDNNQQANAAALASADASFVFGTATASTSVLQSGYGNTLNNYSNPNTASLSNSANNVSGNLGVNVAAGNFNQQKNDLAAAVSNGQYSTAGSAASQTSTGNTTVNSANYAYGGTYVSLKLNADGSYKGTSDQIGDVYLDTWEGQTHPGGSNTGHIDVDSQAQGAKDLNHDGGAFAFKEKGDVDLKGTVSGFIPAIVGFKTPVTNNASLSNSLQNVSGNVGVNIAAGGGNQQSNSLSIAAGCSSCPAGGESLGF
notes: FapC, Pseudomonas aeruginosa PAO1, UniProt Q9I2F0; cloned into pET28b with the histidine tag at the N-terminal site; This construct probably holds the same stretch without the signal peptide; also called FapC with histidine tag at the N-terminus; source: E. coli BL-21, purified (HisPur cobalt resin, lysis in 6 M guanidinium HCl); not shown: His tag, N-terminal, kept
binding result [1]: binds

— paper PMC11787515, “Resilience and charge-dependent fibrillation of functional amyloid: Interactions of Pseudomonas biofilm-associated FapB and FapC amyloids” (The Journal of Biological Chemistry, 2024)
